Data as given in patent US20220380455A1 (Alector, published 2022).
Residue numbers refer to the chain shown, from its start. Several values for one entry are separate records, joined by “and”; a condition that tells them apart may be missing. Equal entries are not always repeated. Blank lines part the entries; values can stand above or below the binder they belong to.

Key:
[1] = molecular target: T1, MS4A6A ECL2 peptide (human); experiment: array SPR (Carterra MX-96), antibody captured on anti-mouse IgG-Fc, ECL2 peptide injected
T1 construct: also called MS4A6A ECL-2 peptides
T1 peptide: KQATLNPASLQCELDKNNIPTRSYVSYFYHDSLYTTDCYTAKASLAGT
Experimental: Binding kinetic characterization of the purified antibodies to MS4A6A ECL1 and ECL2 peptides was performed by Carterra (South San Francisco, Calif.) using a proprietary array Surface Plasmon Resonance (SPR) instrument (MX-96) as follows. Antibodies were printed onto a CMD5OOD chip (Xantec #SPMX CMD500D lot #SC CMD500D0117.a Exp. 31.12.18) using the Continuous Flow Microspotter (CFM). First, the chip was activated with 100 mM MES pH 5.5, 100 μL EDC (133 mM final), 100 μL of S-NHS (33.3 mM final), for 7 minutes. A lawn of anti-mouse IgG-Fc (Jackson ImmunoResearch CAT #115-005-071 lot#130410) was injected for 15 minutes to establish a surface density of 10000-12000 RU, after which the chip surface was deactivated with 1 M ethanolamine at pH 8.5 for 10 minutes. Anti-MS4A6A antibodies in question, in the form of hybridoma supernatants diluted 2:1 with HBS-EP+buffer (Teknova CAT #H8022), were then printed as duplicates with a 20 minute and a 5 minutes print from the same sample solution. Control antibodies were diluted to 20 μ/ml for printing.
To perform kinetic analysis, the peptides in question were prepared in HBS-EP+buffer with lmg/ml BSA at final assay concentrations of 2000 nM, 400 nM, 80 nM, 16 nmM, and 3.2 nM. These were then injected on the chip for five minutes, followed by a seven-minute dissociation period at 8 uL per second in a non-regenerative kinetic series. Duplicate measurements for each anti-MS4A6A antibody were taken to ensure reproducibility.
Kₐ (association rate constant; Kₒₙ), Kd (dissociation rate constant; Koff) and KD (equilibrium constant) to MS4A6A ECL-2 peptides were calculated for each of the 23 anti-MS4A6A antibodies tested, the results of which are shown below in Table 5 (clones that bound too weakly to determine these values are denoted as N/A in Table 5).

[2] = molecular target: T2, cynomolgus (cyno) MS4A6A (cynomolgus, UniProt Q9H2W1 1-246 (human entry)); experiment: flow cytometry, hybridoma supernatant, HEK293 transfected with cyno MS4A6A over parental HEK293; Screen 2
T2 construct: Full-length protein expressed in transfected HEK293, U937 or K562 cells (flow cytometry)
T2 chain: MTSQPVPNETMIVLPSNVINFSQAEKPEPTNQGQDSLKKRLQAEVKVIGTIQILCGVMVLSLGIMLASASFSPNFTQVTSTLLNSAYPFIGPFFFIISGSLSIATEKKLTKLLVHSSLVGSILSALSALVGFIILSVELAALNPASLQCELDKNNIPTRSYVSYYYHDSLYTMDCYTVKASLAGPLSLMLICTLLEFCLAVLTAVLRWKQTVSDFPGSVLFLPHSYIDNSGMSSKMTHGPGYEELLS
Experimental: (§1) Positive clones were expanded and then rescreened for specificity against HEK293 cells overexpressing cyno MS4A6A and parental HEK293 cells. Briefly, previously prepared, cryopreserved transiently-transfected cells were labeled with LIVE/DEAD Fixable Aqua Dead Cell Stain Kit (ThermoFisher Scientific L34957) on ice for 30 minutes. After a wash with PBS, 2×10⁵ cells were aliquoted per well in 96-well round bottom plates and incubated with 50 μl of culture supernatant on ice for 30 mins. […] Following this secondary incubation, the cells were again washed twice with ice-cold FACS buffer and resuspended in a final volume of 200 μl of FACS buffer. Analysis was performed on a FACS Canto system (BD Biosciences), with sort gates drawn to exclude dead (Aqua-positive) cells. […] The screen was repeated twice, and the numbers reported here represent the ratio of mean fluorescence level in transfected cells over parental cells.

[3] = molecular target: T3, MS4A6A ECL1 peptide (human); experiment: peptide ELISA, hybridoma supernatant
T3 construct: the description elsewhere gives ECL1 as 68-84; Human and cyno ECL1 are said to be identical
T3 peptide: SASFSPNFTQVTSTLLNS
Experimental: Anti-MS4A6A hybridoma supernatants were tested for binding to MS4A6A peptides derived from ECL1 (amino acid residues 68-85 of human MS4A6A of SEQ ID NO:1) and ECL2 (amino acid residues 138-185 of human MS4A6A of SEQ ID NO:1) sequences, using an enzyme-linked immunosorbent assay (ELISA). Briefly, 96-well polystyrene plates were coated with 1-10 μg/mL of synthetic free or BSA-conjugated peptides in coating buffer (0.05M carbonate buffer, pH9.6, Millipore Sigma C3041) overnight at 4° C. Coated plates were then blocked with ELISA diluent (PBS+0.5% BSA+0.05% Tween20) for 1-hour, washed 3×300 μL in PBST (PBS+0.05% Tween20, Thermo 28352), and then the antibodies were added at various dilutions (100-1000×) in ELISA diluent. After 30 mins incubation (room temperature, with shaking), the plates were washed 3×300 μl in PBST. A secondary anti-mouse HRP antibody (Jackson Immunoresearch CAT #115-035-003) was added at a 1:1000 dilution in ELISA diluent (50 μL/well) and incubated for 30 minutes at room temperature with shaking. After a final set of washes (3×300 μl in PBST), 50 μL of TMB substrate (BioFx TMBW-1000-01) was added and the reaction was then quenched after 5-10 mins with 50 μL of stop solution (BioFx BSTP-1000-01). The quenched reaction wells were detected for absorbance at […] with a BioTek Synergy Microplate Reader using GENS 2.04 software.

[4] = molecular target: T2, cynomolgus (cyno) MS4A6A; experiment: flow cytometry, hybridoma supernatant, HEK293 transfected with cyno MS4A6A over parental HEK293; Screen 1
Experimental: as §1

B2: 6A-13 (antibody, V domains shown)
VH: EVKVVESGGGLVQPGGSLRLSCATAGFTFTDYYMTWVRQPPGKALEWLGFIRNKANGYTTEYNSSVKGRFTISRDNSRSILYLQMNTLRAEDSATYYCARSMDYWGQGTSVTVSS
VL: NIVMTQSPNSMSMSVGERVTLSCKASENVGTYVSWYQQKPDQSPKLLIYGASNRYTGVPDRFTGGGSATDFTLTISSVQAEDLADYHCGQTYSFPYTFGGGTKLEIK
notes: Mouse hybridoma antibody, tested as hybridoma supernatant (mouse IgG, detected or captured via anti-mouse IgG Fc); also called anti-MS4A6A antibody 6A-13
- Kd [1]: 140 nM and 180 nM
- koff [1]: 0.00066 s⁻¹ and 0.00092 s⁻¹
- kon [1]: 4800 M⁻¹ s⁻¹ and 5300 M⁻¹ s⁻¹
- ratio of APC MFI on MS4A6A+/HEK parental cells [2]: 30.3 ratio
- binding result [3]: no binding
- ratio of APC MFI on MS4A6A+/HEK parental cells [4]: 24.8 ratio

B3: 6A-22 (antibody, V domains shown)
VH: EVNLEESGGDLVQPGGSMKLSCLASGFTFSDAWMDWVRQSPEKGLEWVAEIKNKANNYVTFYAASVKGRFTISRDDSKSSVYLQMNNLRPEDTGIYFCTRGSVYGNWFPYWGQGTLVTVSA
VL: DIVMSQSPSSLAVSAGEKVTMTCKSSQSLFNSRTRKNYLTWYQQKPGQSPKVLIYWASTRESGVPDRFTGSGSGTDFSLTISSVQADDLAVYYCKQSYNLLTFGAGTRLELK
notes: Mouse hybridoma antibody, tested as hybridoma supernatant (mouse IgG, detected or captured via anti-mouse IgG Fc); also called anti-MS4A6A antibody 6A-22
- Kd [1]: 390 nM and 250 nM
- koff [1]: 0.0023 s⁻¹ and 0.0021 s⁻¹
- kon [1]: 6000 M⁻¹ s⁻¹ and 8400 M⁻¹ s⁻¹
- ratio of APC MFI on MS4A6A+/HEK parental cells [2]: 68.8 ratio
- binding result [3]: no binding
- ratio of APC MFI on MS4A6A+/HEK parental cells [4]: 175 ratio

B6: 6A-12 (antibody, V domains shown)
VH: EVQLQQSGPELVKPGASVKISCKASGYSFTGYYMHWVKQSPEDSLEWIGAINPSTGGSTYSQKFKDKATLTVDKSSSTAYMQLKSLTSEESAVYYCTRFDGYGYWGQGTLVTVSS
VL: DIVMTQAAFSNPVTLGTSASISCRSSKSLLHSNGITYLYWYLQKPGQSLQLLIYQMSNLASGVPDRFSGSGSGTDFTLRISRVEAEDVGVYYCAQNLELPWTFGGGTKLEIK
notes: Mouse hybridoma antibody, tested as hybridoma supernatant (mouse IgG, detected or captured via anti-mouse IgG Fc); also called anti-MS4A6A antibody 6A-12
- Kd [1]: 160 nM and 130 nM
- koff [1]: 0.00081 s⁻¹ and 0.00067 s⁻¹
- kon [1]: 5200 M⁻¹ s⁻¹ and 5100 M⁻¹ s⁻¹
- ratio of APC MFI on MS4A6A+/HEK parental cells [2]: 45.5 ratio
- binding result [3]: no binding
- ratio of APC MFI on MS4A6A+/HEK parental cells [4]: 40.3 ratio

Now from value to binder:

- Kd [1]: 170 nM and 150 nM
- koff [1]: 0.00096 s⁻¹ and 0.001 s⁻¹
- kon [1]: 5700 M⁻¹ s⁻¹ and 6900 M⁻¹ s⁻¹
- ratio of APC MFI on MS4A6A+/HEK parental cells [2]: 59.1 ratio
- binding result [3]: no binding
- ratio of APC MFI on MS4A6A+/HEK parental cells [4]: 20.2 ratio
B1: 6A-14 (antibody, V domains shown)
VH: QVQLKQSGPGLVQPSQSLSITCTVSGFSLTTYGVHWVRQSPGKGLEWLGVIWSGGSTDYNAAFISRLNISKDNSKSQVFFKMNSLQANDTAIYYCARGYGSSYEYFDVWGAGTTVTVSS
VL: DIVLTQSPASLAVSLGQRATISCRASESVDSYGNSFMHWYQQKPGQPPKLLIYRASNLESGIPARFSGSGSRTDFTLTINPVEADDVATYYCQQSNEDPLTFGAGTKLELK
notes: Mouse hybridoma antibody, tested as hybridoma supernatant (mouse IgG, detected or captured via anti-mouse IgG Fc); also called anti-MS4A6A antibody 6A-14

- Kd [1]: 120 nM and 150 nM
- koff [1]: 0.00065 s⁻¹ and 0.0008 s⁻¹
- kon [1]: 5400 M⁻¹ s⁻¹ and 5500 M⁻¹ s⁻¹
- ratio of APC MFI on MS4A6A+/HEK parental cells [2]: 82 ratio
- binding result [3]: no binding
- ratio of APC MFI on MS4A6A+/HEK parental cells [4]: 156 ratio
B4: 6A-23 (antibody, V domains shown)
VH: B3 VH with N87S, P90L
VL: B3 VL with S82N, R108K
notes: Mouse hybridoma antibody, tested as hybridoma supernatant (mouse IgG, detected or captured via anti-mouse IgG Fc); also called anti-MS4A6A antibody 6A-23

- Kd [1]: 200 nM
- koff [1]: 0.001 s⁻¹
- kon [1]: 5300 M⁻¹ s⁻¹
- ratio of APC MFI on MS4A6A+/HEK parental cells [2]: 136 ratio
- binding result [3]: no binding
- ratio of APC MFI on MS4A6A+/HEK parental cells [4]: 71.8 ratio
B5: 6A-21 (antibody, V domains shown)
VH: EVQLQQSGPELVKPGASVKMSCKASGYTFTDYFMKWVKQSHGKSLEWIGDINPKNGDTFYNQKFKGKATLTVDKSSSTAYMQLNSLTSEDSAVYYCARPGYFDVWGAGTTVTVSS
VL: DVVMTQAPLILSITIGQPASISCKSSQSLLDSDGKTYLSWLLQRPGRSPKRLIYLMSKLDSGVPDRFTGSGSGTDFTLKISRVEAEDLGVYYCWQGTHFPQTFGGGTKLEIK
notes: Mouse hybridoma antibody, tested as hybridoma supernatant (mouse IgG, detected or captured via anti-mouse IgG Fc); also called anti-MS4A6A antibody 6A-21
